Source: patent US20020155503

Key:
[1] = target: Serine-tyrosine-phenylalanine-histamine-glutamine
[2] = target: T1, Lys-Lys-Lys-Lys-Ala-Asp-Glu-Glu-Asp-Tyr-Phe-Ile-Pro-Pro-Ala
T1 chain: KKKKADEEDYFIPPA

B1: recombinant form of the Abelson murine leukaemia virus protein tyrosine kinase v-Abl (protein)
chain: YITPVNSLEKHSWYHGPVSRNAAEYLLSSGINGSFLVRESESSPGQRSISLRYEGRVYHYRINTASDGKLYVSSESRFNTLAELVHHHSTVADGLITTLHYPAPKRNKPTIYGVSPNYDKWEMERTDITMKHKLGGGQYGEVYEGVWKKYSLTVAVKTLKEDTMEVEEFLKEAAVMKEIKHPNLVQLLGVCTREPPFYIITEFMTYGNLLDYLRECNRQEVSAVVLLYMATQISSAMEYLEKKNFIHRDLAARNCLVGENHLVKVADFGLSRLMTGDTYTAHAGAKFPIKWTAPESLAYNKFSIKSDVWAFGVLLWEIATYGMSPYPGIDLSQVYELLEKDYRMERPEGCPEKVYELMRACWQWNPSDRPSFAEIHQAFETMFQESSISDEVEKELGKRG
phosphorylation of library peptide, anti-phosphotyrosine ELISA (absorbance at 450 nm); preferred substrate of Library Sub-Set 4 [1]: The active site substrate recognition substrate for this enzyme for this Sub-Set was Serine-tyrosine-phenylalanine-histamine-glutamine [SEQ ID No. 21]

B2: recombinant form of the human CSK enzyme (protein)
chain: MSAIQAAWPSGTECIAKYNFHGTAEQDLPFCKGDVLTIVAVTKDPNWYKAKNKVGREGIIPANYVQKREGVKAGTKLSLMPWFHGKITREQAERLLYPPETGLFLVRESTNYPGDYTLCVSCDGKVEHYRIMYHASKLSIDEEVYFENLMQLVEHYTSDADGLCTRLIKPKVMEGTVAAQDEFYRSGWALNMKELKLLQTIGKGEFGDVMLGDYRGNKVAVKCIKNDATAQAFLAEASVMTQLRHSNLVQLLGVIVEEKGGLYIVTEYMAKGSLVDYLRSRGRSVLGGDCLLKFSLDVCEAMEYLEGNNFVHRDLAARNVLVSEDNVAKVSDFGLTKEASSTQDTGKLPVKWTAPEALREKKFSTKSDVWSFGILLWEIYSFGRVPYPRIPLKDVVPRVEKGYKMDAPDGCPPAVYEVMKNCWHLDAAMRPSFLQLREQLEHIKTHELHL
phosphorylation of library peptide, anti-phosphotyrosine ELISA (absorbance at 450 nm); preferred substrate of the sub-set (Asp-Glu-Glu-Glu-Tyr): Library Sub-Set 1 Asp-Glu-Glu-Glu-Tyr [SEQ ID No. 16] | phosphorylation of library peptide, anti-phosphotyrosine ELISA (absorbance at 450 nm); preferred substrate of the sub-set (Asp-Glu-Glu-Tyr-Phe): Library Sub-Set 2 Asp-Glu-Glu-Tyr-Phe [SEQ ID No. 17] | phosphorylation of library peptide, anti-phosphotyrosine ELISA (absorbance at 450 nm); preferred substrate of the sub-set (Asp-Glu-Tyr-His-Asn): Library Sub-Set 3 Asp-Glu-Tyr-His-Asn [SEQ ID No. 18] | phosphorylation of library peptide, anti-phosphotyrosine ELISA (absorbance at 450 nm); preferred substrate of the sub-set (Asp-Tyr-His-Leu-Phe): Library Sub-Set 4 Asp-Tyr-His-Leu-Phe [SEQ ID No. 19] | phosphorylation of library peptide, anti-phosphotyrosine ELISA (absorbance at 450 nm); preferred substrate of the sub-set (Tyr-Pro-Ile-Glu-Val): Library Sub-Set 5 Tyr-Pro-Ile-Glu-Val [SEQ ID No. 20]

B3: catalytic domain of human ZAP-70 (amino acid 306-615), recombinant, from baculovirus-infected Sf9 cells (protein)
chain: RPMPMDTSVYESPYSDPEELKDKKLFLKRDNLLIADIELGCGNFGSVRQGVYRMRKKQIDVAIKVLKQGTEKADTEEMMREAQIMHQLDNPYIVRLIGVCQAEALMLVMEMAGGGPLHKFLVGKREEIPVSNVAELLHQVSMGMKYLEEKNFVHRDLAARNVLLVNRHYAKISDFGLSKALGADDSYYTARSAGKWPLKWYAPECINFRKFSSRSDVWSYGVTMWEALSYGQKPYKKMKGPEVMAFIEQGKRMECPPECPPELYALMSDCWIYKWEDRPDFLTVEQRMRACYYSLASKVEGPPGSTQKAE
Km (33P-γ-ATP phosphorylation of the biotin peptide, streptavidin filter plate capture) (Biotin-εAHA-DEEDYFE(Nle)): 15.79 µM | protein kinase activity against the peptide substrate (column fractions) [2]: ZAP-70 fractions identified by protein kinase activity against the peptide substrate Lys-Lys-Lys-Lys-Ala-Asp-Glu-Glu-Asp-Tyr-Phe-Ile-Pro-Pro-Ala
